This is an account of results in US20140241984A1.

The target in test [1] is α-synuclein fibrils (human) (UniProt P37840). Kind of test: inhibition ELISA; fibrils against monomers. (In general: An ELISA detects its analyte on a solid surface through an enzyme-linked reagent.)
Test [2] has the same target. Kind of test: SPR, BIAcore X100; fibrils immobilised on CM5, mAb injected at 0.01-10 nM. Background: In SPR one partner is held on a chip, and binding of the other changes the refractive index at the surface.

“Syn-1 (Mouse anti-α-synuclein; BD Bioscience) (antibody)” came in with a Fold Affinity to Fibrils in test [1] of 0.476 fold.

What is called Kd is a measure of binding affinity in units of concentration. Higher therefore signals weaker binding. As a reminder, the koff is the rate constant with which the complex falls apart. A higher koff goes with a short-lived complex. Usually kon stands for a measure of how fast the partners come together. In the case of “mAb 211 (Santa Cruz Biotechnology) (antibody)”, in test [2], the Kd stood at 2.56 nM, the koff was found to be 0.000422 s⁻¹ and the kon worked out at 165000 M⁻¹ s⁻¹.
